What was measured:
[1] = test system: ThHSF1 DBD (Trametes hirsuta AH28-2); experiment: FP; conditions: 5x binding buffer pH 6.8 (25 mM HEPES, 5 mM MgCl2, 150 mM KCl, 1 mM DTT, 5% glycerol), EMSA 100 nM probe, 16 C 30 min, then 37 C 30 min, 6% native PAGE
[2] = target: ThHSF1, heat shock transcription factor of Trametes hirsuta AH28-2 (full-length protein) (Trametes hirsuta AH28-2); experiment: ITC; iTC200, 25°C; 50 mM Tris, 500 mM NaCl, pH 7.5; 5 µM ThHspA1 titrated against 1 µM ThHSF1
[3] = target: ThHspA1, Hsp70 homolog of Trametes hirsuta AH28-2 (full-length protein) (Trametes hirsuta AH28-2); experiment: dynamic light scattering; purified full-length ThHSF1 alone, ThHspA1 alone and the two together (Fig. S10); conditions not given
[4] = test system: ThHSF1 full-length (Trametes hirsuta AH28-2); experiment: FP; conditions: without ThHspA1, 5x binding buffer pH 6.8 (25 mM HEPES, 5 mM MgCl2, 150 mM KCl, 1 mM DTT, 5% glycerol), EMSA 100 nM probe, 16 C 30 min, then 37 C 30 min, 6% native PAGE
[5] = target: ThHSF1 full-length;ThHspA1 full-length (Trametes hirsuta AH28-2;Trametes hirsuta AH28-2) (UniProt A0AAD7TN48); experiment: FP; conditions: ThHspA1 added, 5x binding buffer pH 6.8 (25 mM HEPES, 5 mM MgCl2, 150 mM KCl, 1 mM DTT, 5% glycerol), EMSA 100 nM probe, 16 C 30 min, then 37 C 30 min, 6% native PAGE
[6] = target: ThHSF1, heat shock transcription factor of Trametes hirsuta AH28-2 (full-length protein) (Trametes hirsuta AH28-2); experiment: ITC; conditions: natural protein

Row | Substance | Kd [1] [µM] | also measured
1 | TACGCCTAGAACTGACTTACATGCAA (double strand) [lacA mutant probe 4] | 5.2 | –
2 | ThHspA1, Hsp70 homolog of Trametes hirsuta AH28-2 (full-length protein) (natural protein) | – | Kd [2]: 0.105 µM; stoichiometry N [3]: 6
3 | TACGCCTTGAACTGACTTACATGCAA (double strand) [lacA promoter probe WT (26 bp)] | 0.961 | Kd [4]: 1.03 µM; Kd [5]: 0.673 µM
4 | AGTTCAGTATGTCTTGAAGATTATGCGGTCAGAAAC (double strand) [lacB promoter probe] | 5.46 | –
5 | TACGCCTTAAACTGACTTACATGCAA (double strand) [lacA mutant probe 1] | 4.59 | –
6 | ThHspA1, Hsp70 homolog of Trametes hirsuta AH28-2 (full-length protein) | – | Ka [6]: 1.16e+07 M⁻¹
7 | TTCGAACGCACCGAAACCATCCCGAACTTGGTCGAA (double strand) [lacF promoter probe] | 4.83 | –
8 | TACGCCAAGAACTGACTTACATGCAA (double strand) [lacA mutant probe 5] | 11.7 | –
9 | TACGCCTTATACTGACTTACATGCAA (double strand) [lacA mutant probe 2] | 14.7 | –
